Assay results as given in PMC9413444 (ACS Nano, 2022).

Tested on: intracranial glioblastoma GL261 in BL/6 mice
Details: GL261 tumor-bearing BL/6 mice; IV; 2 h post-injection (Figure 2B)

## poly(β-L-malic acid)-trileucine polymer [P/LLL(40%)]
  increase of fluorescence in tumor tissue from dose 0.25X to dose 1.0X: increases proportionally with the dose administered
